Measured values taken from PMC7102954, “A crucial RNA-binding lysine residue in the Nab3 RRM domain undergoes SET1 and SET3-responsive methylation”.

How the values were obtained:
Details in all cases: protein: recombinant; tags: N-terminal His6 (pET28a)
[1] = target: T1, Nab3 RRM S399A (Saccharomyces cerevisiae, UniProt P38996 329-419, S399A); assay: pull-down (streptavidin, anti-His blot); 25 uM RNA; 10 mM Tris-HCl pH 7.8, 50 mM NaCl, 1 mM EDTA, 5% glycerol, 2.5 mM DTT; 30 min at 15 C, then beads 2 h at 4 C; washes with 0.1% Tween-20
T1 sequence: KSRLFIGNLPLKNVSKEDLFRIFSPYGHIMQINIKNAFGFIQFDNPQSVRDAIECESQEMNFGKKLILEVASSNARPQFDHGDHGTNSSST

[2] = target: T2, Nab3 RRM K363A (Saccharomyces cerevisiae, UniProt P38996 329-419, K363A); assay: as above
T2 sequence: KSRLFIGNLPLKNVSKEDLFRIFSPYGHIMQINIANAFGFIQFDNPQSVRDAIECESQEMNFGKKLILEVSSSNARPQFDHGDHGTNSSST

[3] = target: T3, Nab3 RRM (Saccharomyces cerevisiae, UniProt P38996 329-419); assay: pull-down (streptavidin, anti-His blot densitometry); 25 uM RNA; protein 0-60 uM; apparent Kd; 10 mM Tris-HCl pH 7.8, 50 mM NaCl, 1 mM EDTA, 5% glycerol, 2.5 mM DTT; 30 min at 15 C, then beads 2 h at 4 C; washes with 0.1% Tween-20
T3 sequence: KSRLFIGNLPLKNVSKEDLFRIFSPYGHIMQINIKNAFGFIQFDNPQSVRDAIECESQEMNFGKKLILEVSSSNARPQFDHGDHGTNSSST

[4] = target: T4, Nab3 RRM K363R (Saccharomyces cerevisiae, UniProt P38996 329-419, K363R); assay: as above
T4 sequence: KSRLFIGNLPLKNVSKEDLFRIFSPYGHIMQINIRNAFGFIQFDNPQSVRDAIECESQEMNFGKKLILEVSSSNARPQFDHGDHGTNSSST

## UUUCUUUUUUCUUAUUCUUAUU (ssRNA) [snR47 RNA probe]
[1]
  binding result: no binding
[2]
  binding result: no binding
[3]
  Kd: 13.7 µM
[4]
  Kd: 41.9 µM
